# Test results: the supplement of paper PMC7125110
# ± gives the standard error. Variants at the floor of the assay were thinned out.
# B1: glmS ribozyme (parent)
# chain: AUAAAAGCGCCAGAACUACAGAAAUGUAGUUGACGAGGAGGAGGUUUAUCGAAUUUUCGGCGGAUGCCUCCAAA
# Assays:
# Conditions in all cases: with glucosamine-6-phosphate
# glucosamine-6-phosphate [1] = variants of: B1; assay: self-cleavage kobs at 160 uM GlcN6P; higher = faster cleavage; RNA array
# Outline: (§1)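 kcat and KM were obtained from weighted Michaelis–Menten fits across concentrations of kobs values. Those came from one- or two-exponential decay fits to per-tile medians normalised to baseline and to non-cleaving reference variants. The variants were barcoded ribozymes transcribed in situ by E. coli RNA polymerase on sequenced MiSeq chips and tracked through a hybridised Cy3 probe at 37 °C, with 40 μM to 10 mM glucosamine-6-phosphate in HEPES/KCl/Mg(OAc)2 buffer flowed in.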
# glucosamine-6-phosphate [2] = variants of: B1; assay: self-cleavage kobs at 640 uM GlcN6P; higher = faster cleavage; RNA array
# Outline: as §1
# glucosamine-6-phosphate [3] = variants of: B1; assay: self-cleavage kobs at 2500 uM GlcN6P; higher = faster cleavage; RNA array
# Outline: as §1
# glucosamine-6-phosphate [4] = variants of: B1; assay: self-cleavage kobs at 10000 uM GlcN6P; higher = faster cleavage; RNA array
# Outline: as §1
Variant,self-cleavage kobs at 160 uM GlcN6P (glucosamine-6-phosphate [1]) [s⁻¹],self-cleavage kobs at 640 uM GlcN6P (glucosamine-6-phosphate [2]) [s⁻¹],self-cleavage kobs at 2500 uM GlcN6P (glucosamine-6-phosphate [3]) [s⁻¹],self-cleavage kobs at 10000 uM GlcN6P (glucosamine-6-phosphate [4]) [s⁻¹]
A15C A42U U46G C50G,< 1e-05,< 1e-05,< 1e-05,
A14U U31G C67A,7.69e-05 ± 2.3e-05,0.000354 ± 7.7e-05,0.000746 ± 0.00014,
G51U A64U,< 1e-05,< 1e-05,< 1e-05,< 1e-05
A36C G40A,< 1e-05,< 1e-05,,< 1e-05
U46G G60C A64U,< 1e-05,,< 1e-05,< 1e-05
G62A U65G,< 1e-05,< 1e-05,< 1e-05,< 1e-05
G7U C67A,< 1e-05,< 1e-05,,
A36U G63U,< 1e-05,< 1e-05,< 1e-05,
A6U A42U C61G,< 1e-05,,,
G9C C10A G43C C67U,< 1e-05,< 1e-05,< 1e-05,
U45G U57A G59A G62U,< 1e-05,,< 1e-05,< 1e-05
C8G U46C,< 1e-05,< 1e-05,< 1e-05,< 1e-05
G9U C16U,< 1e-05,< 1e-05,< 1e-05,< 1e-05
A48C G62U,< 1e-05,< 1e-05,< 1e-05,
G7A U30C A64C,< 1e-05,< 1e-05,< 1e-05,
G7U G13U A15U G40C G41A A52U,< 1e-05,< 1e-05,< 1e-05,
C10U A42G A53U,< 1e-05,,,
G29C G41C G60A,< 1e-05,< 1e-05,< 1e-05,< 1e-05
G29U G35U G38U A52G,< 1e-05,< 1e-05,,
A6G A36G G44U C61U,< 1e-05,< 1e-05,< 1e-05,
A6U C10G C68U,< 1e-05,,,
U55G G62C,< 1e-05,< 1e-05,< 1e-05,< 1e-05
C34U U47G,< 1e-05,< 1e-05,,
A52C U65C,< 1e-05,< 1e-05,,
G13U G32U C34A G35U,< 1e-05,< 1e-05,< 1e-05,
G13U A42U,< 1e-05,< 1e-05,< 1e-05,

Variant,self-cleavage kobs at 160 uM GlcN6P (glucosamine-6-phosphate [1]) [s⁻¹],self-cleavage kobs at 640 uM GlcN6P (glucosamine-6-phosphate [2]) [s⁻¹],self-cleavage kobs at 2500 uM GlcN6P (glucosamine-6-phosphate [3]) [s⁻¹],self-cleavage kobs at 10000 uM GlcN6P (glucosamine-6-phosphate [4]) [s⁻¹]
G13C A39C A53C,< 1e-05,,,
C50A C67U C71G,4.46e-05 ± 2.1e-05,0.000107 ± 2.5e-05,,
A6G C8G U31A G32U,< 1e-05,,,
G51U C61A C71A,< 1e-05,< 1e-05,< 1e-05,
A15G G51C,< 1e-05,< 1e-05,< 1e-05,< 1e-05
U30A G32C G62A,< 1e-05,,< 1e-05,
G7A U30G,< 1e-05,,< 1e-05,
G37C C71G,< 1e-05,,,< 1e-05
G40U U49C U65G,< 1e-05,,< 1e-05,
C8U G32U G62U C71U,< 1e-05,,< 1e-05,
C50G G63A A64U,0.000145 ± 4.6e-05,0.000136 ± 4.5e-05,,
C8G C11G C16G C34A,< 1e-05,,< 1e-05,
C16G G62C A64U,< 1e-05,,,
G63A C70G C71G,5.57e-05 ± 1.4e-05,4.83e-05 ± 1.9e-05,,
C8G G44C,< 1e-05,< 1e-05,< 1e-05,< 1e-05
C8G G44A,< 1e-05,< 1e-05,< 1e-05,< 1e-05
G13A A33C U55A,< 1e-05,< 1e-05,< 1e-05,
G13C C50G,0.00119 ± 0.00034,,,
G13A C67U,2.9e-05 ± 1.4e-05,4.93e-05 ± 8.8e-06,0.000122 ± 1.2e-05,0.000405 ± 9e-05
G9U G29A G35U U46G,< 1e-05,< 1e-05,< 1e-05,
G43C A48G C71G,< 1e-05,< 1e-05,< 1e-05,
A42C G51U A53C C71G,< 1e-05,,,
C10G G13A U31A C50A G59U,< 1e-05,,,
G7C C10G C70U,< 1e-05,,,< 1e-05
G7U C8U A12G G51C C61U,< 1e-05,< 1e-05,,
A12G A39U A53C,< 1e-05,,,

Variant,self-cleavage kobs at 160 uM GlcN6P (glucosamine-6-phosphate [1]) [s⁻¹],self-cleavage kobs at 640 uM GlcN6P (glucosamine-6-phosphate [2]) [s⁻¹],self-cleavage kobs at 2500 uM GlcN6P (glucosamine-6-phosphate [3]) [s⁻¹],self-cleavage kobs at 10000 uM GlcN6P (glucosamine-6-phosphate [4]) [s⁻¹]
U31A G43A,< 1e-05,< 1e-05,,2.99e-05 ± 9.3e-06
A15G U55G C70A,7.19e-05 ± 1.2e-05,0.000151 ± 2.6e-05,0.000186 ± 3.7e-05,
U31G C68G,0.000192 ± 8.2e-05,,6.11e-05 ± 1.1e-05,3.16e-05 ± 8.9e-06
G38U U65G C70U,< 1e-05,< 1e-05,,
G43C G60C C68U,< 1e-05,< 1e-05,,
C10G G37C A48U C61A U69C,< 1e-05,,< 1e-05,
G9C G41A,< 1e-05,,< 1e-05,< 1e-05
A48G U57A,< 1e-05,< 1e-05,< 1e-05,
A14U U31A U47A,0.000611 ± 0.00016,0.00172 ± 0.00055,,
A1C U30G,0.000834 ± 0.00021,0.00402 ± 0.0016,0.00723 ± 0.0018,
A14G U31C U56A,0.0016 ± 0.00031,0.00939 ± 0.0013,0.0277 ± 0.0066,
A33U G38U G41C G66U,< 1e-05,,< 1e-05,
G9A G29A A48C C58U,< 1e-05,,,
G38A G40U,< 1e-05,< 1e-05,< 1e-05,< 1e-05
G9C A53G,< 1e-05,,< 1e-05,< 1e-05
A1U U2A G63A,< 1e-05,,,
C8A A14U,< 1e-05,< 1e-05,< 1e-05,
U45C A48U U69C,< 1e-05,< 1e-05,,
C50A G51C U55C G60U,< 1e-05,,,< 1e-05
C16G A52G U69G,9.5e-05 ± 3e-05,,0.000143 ± 3.9e-05,
C10G G40C,< 1e-05,< 1e-05,,< 1e-05
G7C G13U A42G,< 1e-05,,,< 1e-05
G13A C50G C61G,0.000169 ± 2.6e-05,0.000203 ± 3.6e-05,0.000114 ± 2.2e-05,
G37U C50G,7.65e-05 ± 3.7e-05,,,
A6G G7C C10U G35U G40U G60A C70G,< 1e-05,< 1e-05,< 1e-05,
G13U A36U G43A G51A C67G C70U,< 1e-05,,< 1e-05,

Variant,self-cleavage kobs at 160 uM GlcN6P (glucosamine-6-phosphate [1]) [s⁻¹],self-cleavage kobs at 640 uM GlcN6P (glucosamine-6-phosphate [2]) [s⁻¹],self-cleavage kobs at 2500 uM GlcN6P (glucosamine-6-phosphate [3]) [s⁻¹],self-cleavage kobs at 10000 uM GlcN6P (glucosamine-6-phosphate [4]) [s⁻¹]
A6C C8U C10G A12U G38U,< 1e-05,< 1e-05,< 1e-05,
U30G G51U,< 1e-05,,,< 1e-05
C8U C16A A39C U46C G51A U65G U69A,< 1e-05,,< 1e-05,
A14C A15C A48U,< 1e-05,,,
A33C G41A,< 1e-05,< 1e-05,,
G41C A48G G63U,< 1e-05,< 1e-05,< 1e-05,
U45G G51C A64C,< 1e-05,< 1e-05,,
G7U U30C G32A,< 1e-05,,,< 1e-05
G43U U47G U65C,< 1e-05,,< 1e-05,
C10G G29C C50G C58G A64U C70A,0.000119 ± 3.1e-05,0.000201 ± 6.9e-05,0.000165 ± 4e-05,
A12U G13C U47G G60C,< 1e-05,,< 1e-05,
A6U G38U G43U,< 1e-05,,< 1e-05,
G13C C68U C71U,< 1e-05,< 1e-05,,
G9A G44C C68A,< 1e-05,< 1e-05,< 1e-05,
C8U U46A,< 1e-05,,< 1e-05,< 1e-05
C11A U30C G62A,< 1e-05,< 1e-05,< 1e-05,
C8A G13U,< 1e-05,< 1e-05,< 1e-05,< 1e-05
U47A C58A,2.53e-05 ± 1.2e-05,7.69e-05 ± 1.4e-05,0.00024 ± 2.9e-05,
C10U G51C,< 1e-05,,,
A39G G41C U46G A64U,< 1e-05,,,
A14C U30G A36U A53G,< 1e-05,< 1e-05,< 1e-05,
G13C C34G G35C G43U A48C C67G C70U,< 1e-05,< 1e-05,,
U47G U54C,0.000851 ± 0.00032,0.0026 ± 0.00053,0.00468 ± 0.00094,0.0139 ± 0.0032
U31G G43U G66U,< 1e-05,,< 1e-05,
